The text below walks through data of PMC11090809.

For the assay, the target named is empty AAVHSC-15 capsid (OXBS1-E fraction of AAV-OXBS1) (AAVHSC-15 (Clade F adeno-associated virus)). Kind of assay: charge detection mass spectrometry (CDMS); OXBS1-E fraction sprayed into a CDMS instrument (Megadalton Solutions); single ions trapped, charge detected, masses calculated; n = 1.

The term stoichiometry N denotes a count of units in the complex or per binding partner. Regarding “empty AAVHSC-15 capsid (OXBS1-E fraction of AAV-OXBS1) (complex)”, the % relative abundance of the dimer peak is 20% and the stoichiometry N was 2.
